From article doi:10.1101/2023.05.08.539930

B1: 70 bp (CAG)1 FRET DNA (dsDNA)
DNA 1: CACACGTTCCGAGATATCCTAGCAAGTGATCAGCGTCTATGTAGCTCAAGAGTTCGACTCAGCCTACACCGAG
DNA 2: CTCGGTGTAGGCTGAGTCGAACTCTTGAGCTACATAGACGATCACTTGCTAGGATATCTCGGAACGTGTG
modifications: 5' digoxigenin on both strands, anti-digoxigenin Fab end-blocked
B2: 70 bp (CAG)2 FRET DNA (dsDNA)
DNA 1: CACACGTTCCGAGATATCCTAGCAAGTGATCAGCAGCGTCTATGTAGCTCAAGAGTTCGACTCAGCCTACACCGAG
DNA 2: CTCGGTGTAGGCTGAGTCGAACTCTTGAGCTACATAGACGATCACTTGCTAGGATATCTCGGAACGTGTG
modifications: 5' digoxigenin on both strands, anti-digoxigenin Fab end-blocked
B3: 70 bp (CAG)4 FRET DNA (dsDNA)
DNA 1: CACACGTTCCGAGATATCCTAGCAAGTGATCAGCAGCAGCAGCGTCTATGTAGCTCAAGAGTTCGACTCAGCCTACACCGAG
DNA 2: CTCGGTGTAGGCTGAGTCGAACTCTTGAGCTACATAGACGATCACTTGCTAGGATATCTCGGAACGTGTG
modifications: 5' digoxigenin on both strands, anti-digoxigenin Fab end-blocked

Each binder was assayed against MSH2;MSH3 (Homo sapiens;Homo sapiens, UniProt P43246;P20585 1-934;1-1137, |) (assay: FRET).

Binding result, binds:
B1
B2
B3
